Consider 6 molecules from patent US10801046B2, “Methods and materials for biosynthesizing multifunctional, multivariate molecules via carbon chain modification” (INVISTA NORTH AMERICA S.A.R.L., priority 2016, dated 2020).

B1: SEQ ID NO: 213: Helobdella robusta carboxylate reductase (protein, listed as Helobdella robusta)
chain: MRVSNNGPFLGHRCRFTKQYVWQTYEEIFELCQDFGSALIYKGLKPEDSTVIGIYSHNCVEWNITSETCSMFSMALVPLYDTLGPEACQYIINQTEMTTVVCEGWLKANLILNGLKQAESRTATPLKRLIIITNKDFHMSLKDSVRVSKHFSSSPDLANFADADSLSKNVLETAEKFGVEIPPTPSTINLISYTSGTTGDPKGVVLTHEAVICNISGLLAYDQHHKLFPKCGDFHLSYLPAAHGFERMNQIILMINGGQIGFSSGDILLLLDDIAALRPTIFMCVPRVLNRVYEKVMSNLENKPIKRWLFNFGMQRKLNLLKRGIITKNTIWDKLMFHKIQTLFGGRLEVCISGSAPLSDVVMDFCRGTFGCFVYEGYGQTELCAATMLTLPYEHDTVVVGPPLPNCHIKLIDIPDLDYKAINNMGEICIKSFCRMREYFKEPIKTRETLDEDSYIHTGDVGMWLPNGNLRIIDRRKHVFKLAQGEYVAPEKIENIYAMSPLICQVFVDGNSLQFCPLAVVVPDEDALKRLAERDSRTSKTICPIKICNMEQFCKNEEIRKMIHADMLQRGKKAGLKGFEQVKDIHLHPEKFSIENGLLTPTMKTKRPILRKKFQNIFVEMYEKLNRNVVSTNITTHPLQNL
B2: SEQ ID NO: 214: Mycobacterium lepromatosis carboxylate reductase (protein, listed as Mycobacterium lepromatosis)
chain: MSTTNTQEEQLARRVDYLTANDPQFAAAKPDPAVVAALAQPGLRLPQIIQTTLDGYAERPALGQRVVEFIKDPKTGRTSIELLPCFETITYRELSDRVGALARAWIHDLLHAGDRVCVLGFNSVDYAIIDMALGVISAVAVPLQTSAAITQLQPIVIETEPRVIAASVNQLPDTVELILSGPAPAKLVVFDYHPEADEQRDAVATARERLVDNNVVVESLIEVLDRGKTLPATPIPVADDSDDPLALLIYTSGSTGAPKGAMYPQSNVGKMWRRSDGNWFRSTAASITLNFMPMSHVMGHGILYGTLGNGGTAYFAARSDLSTLLEDLKLVRPTELNFVPRIWETLYDECQHAVDRRLTNSGSADRAAIEAEVMDEQRQSLLGGRYIAAMTGSAPTSPELKHGVESLLEMHLLEGYGSTEAGMVLFDGEVQRPPVIDYKLVDVPDLGYFSTDQPYPRGELLLKTQNMFPGYYKRPEVTATVFDGDGYYQTGDIVAEVGPARLVYVDRRNNVLKLAQGQFVTVAQLEAAFSNSPLVRQIYIYGNSAHPYLLAVVVPTEDALATNDIEALKPLIIDSLQEVAKEAELQSYEVPRDLIIETTPFSLENGLLTGIRKLAWPKLKQHYGARLEQLYADLAEGQTNALHALRQSGAEAPVLQTVSRAAGTILGAATTDLPSNAHFTDLGGDSLSALTFSNLLRELFNIDVPVGVIVSPVNDLAAIADYIESEQQGTKRPTFTAIHGRDAGEVHASDLTLDKFIDVSTLTAAPMLAQPDAEVRTVLLTGATGFLGRYLALKWLERMDLVDGKVIALVRAKSNEEARARLGKTFDSGDPKLLAHYQELAADHLEVIAGDKGEVELELDRQTWRRLADTVDLIVDPAALVNHVLPYSELFGPNALGTAELIRIALTSKQKPYIYVSTIGVGDQIEPAKFTEDSDIRVTSPTRKINDNYANGYGNSKWAGEVLLREAHELCGLPVAVFRCDMILADTSYAGQLNVPDMFTRMMLSLAATGIAPGSFYELDAESNRQRAHYDGLPVEFIAEAISTLGAQSLHGRDGFATYHVMNPHDDGIGMDEFVDWLIDAGCPIQRINDYDEWLRRFEISLRALPERQRHNSLLPLLHNYQKPEKPLNGSLAPTDRFRTAVQESKIVQDKDIPHISSAIIGKYVSDLQLLGLLRRQADRSPARVPS
B3: SEQ ID NO: 211: Theileria parva carboxylate reductase (protein, listed as Theileria parva)
chain: MNHLYSVALEGTEEEGYTPVYRNPDYKDRLLSCEDYFDGKIQTGWDIFNRGLTLSRNKPFLGSRVKNADGTFGEFKFMTYGEVEDQIKHFGSGLLNLDKFKEVFVKEENQMVKMLGIYSQNTVEWLITEQVCNGYNLTLVPLYDTLGEESLLYIINVTKLNVIVCDYKCSLKLLDLLPKSNGSVSLVVVTGVDELPDQVTAKSQSLSSVTFKTYQEVVNFGKEDPLAFTPCTKDSIGTISYTSGVSGIPKGVIVKHFQHASLVVIVNRIVCDLEKTQLENPKVHLSYLPLSHMFERLYIGTSIIEGSVIGLFSGDVKNILEDIKALRPNVFPSVPRLYMRIHDKIFSTVSQKSFLIRSLFGLGLSRKLKKIRKTGVVTHRFWDKILFNKFNTLLGGRVNWMLTGSAPLSPKIFDNIRALFSIPLVSGYGLTETCAGAFHTERYEPDSTHVGGPVPCMEFRLKSLPDYNYYTTDKNPKGELLLRGNNIVTSYFSDDVTNKESFDENKWFLTGDIAELLPNGAIRIIDRRKNIFKLSQGEYISPEKIESILNTAPILCQSYVTGKSHFLNPVAVVVPDELELELWSKRYGLANLDRKEQCEVKQLKEFIAKEIEKVFENSDVKGFEKIKNFYVEHELFSIENNLLTTTSKLKRYNLSKKYAEQIDRLNDES
B4: SEQ ID NO: 209: Nocardia brasiliensis NBRC 14402 carboxylate reductase (protein)
chain: MERKAEVLAARRVEDLIERDAQVRAAIPDPVVTAELERADGSLAQTVARVMAGYADRPALGQRAVEFVPDENGCRRTRLLPWFDTITFGELWQRVGTVAAVWQSRAERSVRAGDFVAVLGSTGIDYTVVDLACTYSGAVPVPLQAGASPTQLAPIVREVEPKVLATDVGQLEVAVDLASAGDSVRSLLIFGLYAEDDEHCAAVESARRRLADTPVVVETIVELLASGQDRPAASLHASADPDELALLIYTSGSTGTPKGAMYTQRLLTNAWCAAGASPMPSIALSYLPMSHTMARQLLLTGLARGGTVYFAARNDMSTLFDDFALARPTLLGFVPRVCDMVLQRFQSEMARRVGADDEPTVVEQEVKTELREQFLGGRFLVASIGSAPLSADMREFMQSVLGIALIDAYGSTETGGVLMNNKVVRTAILDYKLVDVPELGYFSTDRPHPRGELLIKSRTLIPGYYKRPELNSQFFDAEGFYRTGDVMAQTGFDELVYVDRRNSVLKLSQGEFVAVSKLEAIFVGSPLVEQIYVYGSSERAYLLAVIVPVAEAIATHAGTAELKAAISESLRQIAKDAELSSYEVPRDFLLESEPFTVDNGLLAGLSKLLRPSLKERYGERLEALYRVAEAAQTQELAALRQQAGMLPVLETVSRAAQAVLGVSAAELRPDAHFTDLGGDSLAALSFSTLLQELLGVQVPVGVIASSANDLRRIANYAVAERSAGSLRPTSTGVHGTGSQLRAIDLRLDKFIDPSTLAAATTLPRAGEPRTVLLTGANGYLGRFLCLEWLQRLHHSGGTLICVVRGIDAVAARERLDEVFDSGDPELLHRYRELAEGTLEVLCGDISEPGLGLSERDWRRLADTVELIVHAAALVNHVLPYGQLFGPNVVGTAEIIRLAMTTRIKPVTYLSTVAVAAQVAPEQFTEDGDIREISAVRSLDEGYADGYGTSKWAGEVLLREAYDLCGLPVAVFRSDMILAHSRFAGQLNVSDMFTRLVLSVLATGVAPKSFYETDRMGNRQRAHYDGLPVDFTAQAITVLGSQVVSGFETFDVLNPHDDGLSLDEFVDWLIAAGHSIDRIDGYAEWLSRFGTALRVLSERQRQHSVLPLLHAYRRAAVPIPGAALPAKKFQAAVQDAQLGPGRDIPHLTPDLIEKYVSDLKLRNLL
modifications: Nocardia brasiliensis NBRC 14402
notes: Nocardia brasiliensis NBRC 14402 carboxylate reductase
B5: SEQ ID NO: 210: Rhizopus microspores carboxylate reductase (protein, listed as Rhizopus microsporus)
chain: MPPAFDPPYSVPVPGSEKKEGETVPFRHFKFADKLVDHPEGVFTAWDIFVHGYDSAGDKPFMGTRRIEDGVAKEYVWQNYPEVRTRIENFGKGMLHLGLKRQHAIGVYSVNRPEWTMTEIASYRQAFMIVALYDTLGAEAMEYIINQTSMEYIVLSADKLDNIIRLKSQIATISTAIVMDDEVDDAKKAEAEAAGIKVYTFRQVETMGSEITSESDLPKPEDIATICYTSGTTGVPKGAVITQANCVAAISAIAALGDKGTFADVNSDDIYISYLPLAHVFERVAQGIHLFRGAAIGYYQGDTLKLLDDIAELRPTVFCSVPRLFNRIYDKVLAGVKAKGGVSAYLFNTAFQSKKRHLSKTVHHWLWDRVVFTQIRQKLGGRLRFILSGSAPVSPDVMDFMRICFSAKVFEGYGQTENFCGGALTITDDNTSGVVGAPFPCSEIKLVDVPEMEYFSTDKPFPRGEICIRGTSIMQGYYQLPEKTAEAIDKDGWLHTGDIGQFDSANRLVIIDRLKNIFKLSQGEYIAPEKIEGVYQKHELVAQAFIYGDSMQSSLVGIIVPDKDAFSAWAKEHFPTVEDPYASDEVKKALLKELTAYGKENDLKGFEQMRSVYLTPNEFSIENDLLTPTFKLRRENAKKVYESQIEIMYASLSNGRAFN
B6: SEQ ID NO: 212: Anisakis simplex carboxylate reductase (protein)
chain: MYERLLHCIGYQVGLRFGFFGGDVNRLIDDIKELHPTVIPLVPRVLNRFHDTVMAKVNKSFLKRIIFNLALAFKYRELSRSIIRNDSLVDRYVFKRVREELGGRARFSMIGSAPVHGDILRFSRAVLGYVIVEGYGATECAAGTSAVIEADPITEHIGIPLACAAIKLVDVPELGYYAKDQAGEICYRGAHVFKGYFKNDEGTKEVLDADGWLHSGDIGRWTERGTLKIVDRKKHIFKLQQGEYIAPEKIEAVYDRSEYVVQSFVYGESLKTCLVAIIVPDQEIVLRDAKQKLDLAETDFAKLCRNDAVKKMILNDLTIVGRKAGLNSFEQVKDIYLSVERFTIANDLLTPTMKNKRPQIKSHFMKELNEMYSKLK
modifications: Anisakis simplex
notes: Anisakis simplex carboxylate reductase

A short description of this experiment: In vivo carboxylate reductase screening, substrate consumption by LC-MS, monomethyl heptanedioate. The experiment is classed as cell-based, Escherichia coli. Conditions: 541 enzymes screened in vivo. The protocol: To screen carboxylate reductases in vivo, […] T7- pUC expression vectors was co-transformed into T7 Express lysY/Iq with the phosphopantetheinyl transferase sfp from Bacillus subtilis on a T7-pCDF expression vector. Biological duplicates of the resulting strains were incubated in 0.5 mL of terrific broth containing either 1 g/L heptanedioate or 1 g/L monomethyl heptanedioate and supplemented with 0.4 mM IPTG in 96-well deep well plates. The plates were incubated for 30 h at 30° C. in a shaking incubator. The cells were then pelleted, and culture supernatants from the same strains in media containing either heptanedioate or monomethyl heptanedioate were combined. The combined supernatants were analyzed by LC-MS to determine the concentration of heptanedioate and monomethyl heptanedioate. Carboxylate reductase activity on heptanedioate or monomethyl heptanedioate was reflected by consumption of the respective substrate in the medium.
B1: the monomethyl heptanedioate activity entry is “most monomethyl heptanedioate activity”.

For the molecule B2, the monomethyl heptanedioate activity entry was “most monomethyl heptanedioate activity”.

B3: the monomethyl heptanedioate activity entry is recorded as “most monomethyl heptanedioate activity”.

For the molecule B4, the monomethyl heptanedioate activity entry is “most monomethyl heptanedioate activity”.

For the molecule B5, the monomethyl heptanedioate activity result is given as “most monomethyl heptanedioate activity”.

As to B6, the monomethyl heptanedioate activity entry is “most monomethyl heptanedioate activity”.
